In experiment [1] the target is Drp1 Y493A (isoform 1) (human) (UniProt O00429). As to the kind of experiment: SEC-MALS; 5 µM Drp1 injected onto a Superose 6 10/300GL column. A general note: Size exclusion chromatography separates by hydrodynamic size, large species first.
For experiment [2] the target is unchanged.

In experiment [1], “Drp1 Y493A (isoform 1) (from UniProt O00429-1 1-736) (natural protein)” registered a stoichiometry N of 2. The same substance gave a GTPase activity (malachite green) with cardiolipin-containing nanotubes; not stimulated in experiment [2] of 1.2 min⁻¹.

In general, stoichiometry N refers to a count of units in the complex or per binding partner.

Values taken from publication PMC10864337.
